Results published in patent publication US20090137002A1 (published 2009).

B1: MOR03641 Fab (Fab, V domains shown)
VH: QVQLVQSGAEVKKPGSSVKVSCKASGGTFSTYAISWVRQAPGQGLEWMGRIIPIFGTANYAQKFQGRVTITADESTSTAYMELSSLRSEDTAVYYCARSSYTILTTYYNYNAMDNWGQGTLVTVSS
VL: DIQMTQSPSSLSASVGDRVTITCRASQNINNFLNWYQQKPGKAPKLLIYGSSILQSGVPSRFSGSGSGTDFTLTISSLQPEDFAVYYCHQVSDTSDTFGQGTKVEIKR
notes: Monomeric HuCAL Fab (VH1A, kappa1), purified, MH-tagged; also called 3541 [sic]
B2: MOR03639 Fab (Fab, V domains shown)
VH: QVQLVESGGGLVQPGGSLRLSCAASGFTFSNYYLHWVRQAPGKGLEWVSGISYSGSSTYYADSVKGRFTISRDNSKNTLYLQMNSLRAEDTAVYYCARFYQRRQIPHGYDVWGQGTLVTVSS
VL: DIELTQPPSVSVAPGQTARISCSGDNIGDYYVHWYQQKPGQAPVLVIYRDSNRPSGIPERFSGSNSGNTATLTISGTQAEDEADYYCGSYDMPFGGTVFGGGTKLTVLG
notes: Monomeric HuCAL Fab (VH3, lambda3), purified, MH-tagged
B3: MOR03640 Fab (Fab, V domains shown)
VH: QVQLVESGGGLVQPGGSLRLSCAASGFTFNNSWMSWVRQAPGKGLEWVSNITSSSSMTHYADSVKGRFTISRDNSKNTLYLQMNSLRAEDTAVYYCARKGMSFYNNKYAKSMFDLWGQGTLVTVSS
VL: DIELTQPPSVSVAPGQTARISCSGDNLGKKYVHWYQQKPGQAPVLVIYYDSKRPSGIPERFSGSNSGNTATLTISGTQAEDEADYYCSAWTTTMMHIVFGGGTKLTVLG
notes: Monomeric HuCAL Fab, purified, MH-tagged

Assays:
recombinant mouse EphB6 = biological target: T1, recombinant mouse EphB6 (mouse, UniProt O08644 33-591, limits assumed); assay: ELISA on coated receptor
T1 construct: also called mEphB6
T1 sequence (looked up): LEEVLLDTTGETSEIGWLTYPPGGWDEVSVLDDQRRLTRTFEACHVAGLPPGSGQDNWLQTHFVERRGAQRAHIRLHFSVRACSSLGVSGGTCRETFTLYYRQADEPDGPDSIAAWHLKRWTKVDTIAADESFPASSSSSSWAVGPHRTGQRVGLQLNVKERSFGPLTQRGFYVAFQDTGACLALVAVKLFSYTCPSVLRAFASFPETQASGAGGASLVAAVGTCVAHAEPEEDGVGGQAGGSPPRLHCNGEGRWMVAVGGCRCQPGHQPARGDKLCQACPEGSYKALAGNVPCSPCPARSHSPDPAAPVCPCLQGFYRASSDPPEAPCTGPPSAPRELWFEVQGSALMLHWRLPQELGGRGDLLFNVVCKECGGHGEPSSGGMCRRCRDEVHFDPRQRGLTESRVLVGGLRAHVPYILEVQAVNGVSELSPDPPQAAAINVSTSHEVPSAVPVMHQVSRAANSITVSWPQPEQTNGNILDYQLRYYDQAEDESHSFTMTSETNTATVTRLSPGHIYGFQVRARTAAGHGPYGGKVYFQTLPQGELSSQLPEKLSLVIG
Protocol: (§1) A 96-well plate was coated with recombinant mEphB1, -2, -3, -4, -6, mEphA4 and hEphB4 in PBS o/n at 4° C. (5 μg/mL; 100 μL/well). The next day, the antigen was discarded and the plate blocked with 3% BSA/PBS (300 μl/well) for 2 hrs at room temperature (RT). Blocking solution was discarded and anti-EphB4 Fabs were added to the wells at a concentration of 20 μg/mL in 1% BSA/PBS and incubated for 1 hr at RT. Fabs were discarded and the plate was washed 3× with PBS. Anti-human F(ab′)₂—HRP was added at a concentration recommended by the manufacturer in 1% BSA/PBS and incubated for 1 hr at RT. The plate was washed 3× with PBS and 100 μL/well chemifluorescent substrate was added. After development, fluorescence was measured in a fluorescence reader.

[1] = biological target: T2, recombinant mouse EphB3-Fc fusion protein (mouse, UniProt P54754 30-537, limits assumed); assay: ELISA on coated receptor
T2 construct: also called mEphB3; not shown: Fc part, not described
T2 sequence (looked up): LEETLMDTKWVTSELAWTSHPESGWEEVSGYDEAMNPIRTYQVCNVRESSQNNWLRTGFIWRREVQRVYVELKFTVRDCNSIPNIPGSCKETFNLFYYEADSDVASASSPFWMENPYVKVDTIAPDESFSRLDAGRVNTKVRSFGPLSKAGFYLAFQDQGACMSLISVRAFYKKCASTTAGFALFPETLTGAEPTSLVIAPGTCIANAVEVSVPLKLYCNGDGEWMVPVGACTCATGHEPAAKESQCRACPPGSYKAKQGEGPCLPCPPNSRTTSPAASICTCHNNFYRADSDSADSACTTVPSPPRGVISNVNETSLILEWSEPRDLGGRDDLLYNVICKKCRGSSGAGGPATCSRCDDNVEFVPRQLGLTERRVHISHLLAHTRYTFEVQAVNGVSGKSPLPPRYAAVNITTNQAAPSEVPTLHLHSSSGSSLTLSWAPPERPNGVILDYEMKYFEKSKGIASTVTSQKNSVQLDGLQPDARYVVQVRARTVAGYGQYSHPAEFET
Protocol: as §1

[2] = biological target: T3, recombinant murine EphB4-Fc fusion protein (mouse, UniProt P54761 16-539); assay: Biacore, EphB4-Fc on chip
T3 construct: extracellular domain; also called mEphB4; mu EphB4; not shown: Fc part, not described
T3 sequence (looked up): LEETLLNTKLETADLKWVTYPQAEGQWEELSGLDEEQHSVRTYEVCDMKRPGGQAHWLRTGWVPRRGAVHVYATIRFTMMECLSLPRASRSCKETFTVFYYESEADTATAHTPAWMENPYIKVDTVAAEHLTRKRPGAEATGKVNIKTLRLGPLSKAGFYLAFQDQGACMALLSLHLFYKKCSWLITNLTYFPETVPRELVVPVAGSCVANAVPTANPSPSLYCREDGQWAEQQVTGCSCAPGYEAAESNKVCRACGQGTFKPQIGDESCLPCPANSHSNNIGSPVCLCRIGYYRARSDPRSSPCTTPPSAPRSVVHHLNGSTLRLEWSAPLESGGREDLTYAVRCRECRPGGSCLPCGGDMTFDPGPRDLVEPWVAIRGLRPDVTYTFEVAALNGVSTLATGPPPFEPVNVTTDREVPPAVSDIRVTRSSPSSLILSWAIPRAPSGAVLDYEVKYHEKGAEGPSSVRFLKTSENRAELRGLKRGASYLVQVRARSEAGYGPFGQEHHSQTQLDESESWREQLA
Protocol: (§2) The affinity of the antibody fragments was determined using BIACORE™ analysis and cell ELISA. The Biacore chip was coated with recombinant human or murine EphB4-Fc fusion protein.

[3] = biological target: T4, recombinant human EphB4-Fc fusion protein (human, UniProt P54760 16-539); assay: Biacore, EphB4-Fc on chip
T4 construct: extracellular domain; also called hEphB4; hu EphB4-Fc
T4 sequence (looked up): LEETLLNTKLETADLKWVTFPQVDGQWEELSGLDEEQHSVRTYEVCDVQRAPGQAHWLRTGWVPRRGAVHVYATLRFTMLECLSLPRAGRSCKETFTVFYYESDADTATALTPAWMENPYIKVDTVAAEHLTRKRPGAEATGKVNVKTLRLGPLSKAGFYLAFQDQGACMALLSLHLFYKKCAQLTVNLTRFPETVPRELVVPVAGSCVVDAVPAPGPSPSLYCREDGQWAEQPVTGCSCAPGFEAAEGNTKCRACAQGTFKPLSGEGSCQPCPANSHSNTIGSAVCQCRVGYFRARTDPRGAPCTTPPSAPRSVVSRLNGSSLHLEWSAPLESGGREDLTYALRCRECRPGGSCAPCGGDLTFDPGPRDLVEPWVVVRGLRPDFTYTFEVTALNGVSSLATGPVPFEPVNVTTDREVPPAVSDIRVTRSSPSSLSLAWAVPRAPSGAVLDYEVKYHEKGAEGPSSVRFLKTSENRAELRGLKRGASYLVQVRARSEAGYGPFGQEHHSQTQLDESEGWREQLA
Protocol: as §2

Binder | binding result (recombinant mouse EphB6) | binding result [1] | Kd [2] [nM] | Kd [3] [nM]
B1 | no binding (tested: 20 µg/mL) | no binding (tested: 20 µg/mL) | 151 | 35
B2 | no binding (tested: 20 µg/mL) | no binding (tested: 20 µg/mL) | 43 | 13
B3 | no binding (tested: 20 µg/mL) | no binding (tested: 20 µg/mL) | 4 | 1.8
